{
  "source": "patent US20150197796",
  "about": "“SSB METHOD” (OXFORD NANOPORE TECHNOLOGIES LIMITED, published 2015)",
  "binders": {"B1": {"name": "70mer polyT (ssDNA)", "DNA": "TTTTTTTTTTTTTTTTTTTTTTTTTTTTTTTTTTTTTTTTTTTTTTTTTTTTTTTTTTTTTTTTTTTTTT"}},
  "biological_target": "EcoSSB-WT (Escherichia coli, UniProt P0AGE0 SEQ:1-177)",
  "experiment": "EMSA; 5% TBE gel",
  "settings": "tags: N-terminal His6-TEV site removed; commercial EcoSSB-WT also run; chain copies: 4 stated (homotetramer in solution)",
  "data": [
    {"binder": "B1", "values": [
      {"measurement": "binding result", "value": "binds"}
    ]}
  ]
}
